We go through one molecule from patent EP4703474A1, “ANTI-LRRC15 ANTIBODY” (priority 2023, dated 2024).

Assay [1] has as its system HER2-positive breast carcinoma cell line SUM190PT. The experiment in a line: In vivo antitumor effect, SUM190PT subcutaneous transplant model. As to conditions: 0.4 mg/kg, tail vein, on Day 32, female SCID mice. The procedure:
(§1) The antitumor effects of the antibody-drug conjugates were evaluated by using animal models in which cells of a human tumor cell line had been transplanted into immunodeficient mice, or cells of a mouse tumor cell line had been transplanted into immunocompetent mice. 4 to 6 Week-old SCID mice (CB17/Icr-Prkdc[scid]/CrlCrlj, Jackson Laboratory Japan, Inc.), NSG mice (NOD.Cg-Prkdcscid Il2rgtm1Wjl/SzJ, Jackson Laboratory Japan, Inc.), or B6J mice (C57BL/6J, Jackson Laboratory Japan, Inc.) were habituated for 3 days or more under SPF conditions before experimental use. The mice were fed with sterilized solid feed and given sterilized tap water. The major and minor diameters of the transplanted tumors were measured twice a week with an electronic digital caliper (Mitutoyo Corporation), and the estimated tumor volume was calculated using the following formula. Estimated tumor volume (mm^3) = 1/2 × major diameter (mm) × [minor diameter (mm)]^2 All antibody-drug conjugates were diluted with ABS and administered into the tail vein at doses shown in each Example. In addition, ABS (vehicle) or control hIgG-PBD prepared in Reference Example 4 was administered as the control group, in a similar manner. 5 to 6 Mice were used per group in the experiment. […]

Assay [2] deals with Gastric carcinoma cell line NCI-N87. Description: In vivo antitumor effect, NCI-N87 subcutaneous transplant model. The settings on record: 0.4 mg/kg, tail vein, on Day 10, female SCID mice. The procedure: as §1, with “experiment. To analyze the LRRC15 expression in mouse tumor models, immunohistochemical staining of LRRC15 was performed.” for “experiment.”
Assay [3] has as its system Fibrosarcoma cell line HT-1080. Description: In vivo antitumor effect, HT-1080 subcutaneous transplant model. As to conditions: 0.4 mg/kg, tail vein, on Day 7, female SCID mice. The procedure: as §1, with “experiment. To analyze the LRRC15 expression in mouse tumor models, immunohistochemical staining of LRRC15 was performed.” for “experiment.”

B1: H02L01-V1-PBD (conjugate)
heavy: EVQLVESGGGLVQPGGSLRLSCAASGFTFRDYYMAWVRQAPGKGLEWVSSIGFDESRTYYADSVKGRFTISRDDSKNTLYLQMNSLRAEDTAVYYCARHGVSKYSGDNWFAYWGQGTLVTVSSASTKGPSVFPLAPSSKSTSGGTAALGCLVKDYFPEPVTVSWNSGALTSGVHTFPAVLQSSGLYSLSSVVTVPSSSLGTQTYICNVNHKPSNTKVDKKVEPKSCDKTHTCPPCPAPEAAGGPSVFLFPPKPKDTLMISRTPEVTCVVVDVSHEDPEVKFNWYVDGVEVHNAKTKPREEQYNSTYRVVSVLTVLHQDWLNGKEYKCKVSNKALAAPIEKTISKAKGQPREPQVYTLPPSREEMTKNQVSLTCLVKGFYPSDIAVEWESNGQPENNYKTTPPVLDSDGSFFLYSKLTVDKSRWQQGNVFSCSVMHEALHNHYTQKSLSLSPGK
light: DIQMTQSPSSLSASVGDRVTITCKSSQGLLYSGDQKNYLAWYQQKPGKAPKLLIYWASTRQSGVPSRFSGSGSGTDFTLTISSLQPEDFATYYCQQYYDPPYTFGQGTKVEIKRTVAAPSVFIFPPSDEQLKSGTASVVCLLNNFYPREAKVQWKVDNALQSGNSQESVTEQDSKDSTYSLSSTLTLSKADYEKHKVYACEVTHQGLSSPVTKSFNRGEC
B1: the “antitumor effect (estimated tumor volume)” value in assay [1] is “antitumor activity higher than that of the vehicle and control hIgG-PBD”; in assay [2], “antitumor activity higher than that of the vehicle”; in assay [3] it was “antitumor activity higher than that of the vehicle and control hIgG-PBD”.
